# Laboratory results published in paper PMC9968969.
# Test system: [H][C@@]12COP(=O)(O)O[C@@]1([H])[C@@H](O)[C@H](n1cnc3c(=O)[nH]c(N)nc31)O2
# Assay: purified protein
# Settings: […] MgCl2 in the reaction buffer catalytic site
substance,measurement,value
PDE5A (Homo sapiens),Km,3.87 ± 0.12 µM
